Results taken from the supplement of paper PMC9732359.
± gives the uncertainty stated by the source.

Assay: protein stability index of a GFP-peptide fusion (yeast GPS) (PSI 1-4); higher = more stable; sorted into four equal gates, so the index is relative within each strain
Settings: san1∆
In short: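 The protein stability index combines read frequencies across sorting gates, each weighted by its gate number and then summed. To obtain those frequencies, a pooled yeast library of GFP fusions to tiled 17-residue yeast protein peptides, on a plasmid also expressing Cherry, was grown to mid-log phase in leucine-free medium. The cells were sorted into four equal gates by GFP/Cherry ratio before plasmid amplification by PCR and Illumina sequencing.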
TCVAKKGIAKEHAKWGP [RPB3] gave a protein stability index of 3.21 ± 0.07.

Same assay, conditions: ubr1∆
In the case of SPDGRNFQVEYAVKAVE [PRE10], the protein stability index is reported as 2.37 ± 0.085. In the case of SPDSTVNRSVVVSAVGE [YAR002W/NUP60], the protein stability index is reported as 2.79 ± 0.061. SPEGRLFQVEYSLEAIK [PUP2] showed a protein stability index of 2.62 ± 0.067. With SPFLMGHPMTKSVYETP [SEC65] the protein stability index was 2.68 ± 0.052. In the case of SPIGFTNSPQISVTRQV [SMC2], the protein stability index is reported as 2.79 ± 0.034. For SPIKNGSCTRQLAGKSG [YOR098C/NUP1], the protein stability index was 3.08 ± 0.069. Sequence SPKPYAVKYGLNHVVSL [RPL8B] has a protein stability index of 1.94 ± 0.046. For SPLLESDSIEKIVEIDR [PUP2], the protein stability index was 3.49 ± 0.14. With SPMINSTSSGKVSYAVK [SNM1] the protein stability index was 2.93 ± 0.056. For SPQAVSSFVRQELAKSI [PRE1], the protein stability index was 2.31 ± 0.059. For SPTSPSYSPTSPSYSPT [RPO21], the protein stability index was 2.82 ± 0.029. SPYERRLIDLIRNSGEK [RPL36A] gave a protein stability index of 1.89 ± 0.086. Work on SQIIPLMKKACYVGLLT [SNU114] yielded a protein stability index of 1.83 ± 0.043. Work on SQKHNGRILKWLWPLCR [CDC53] yielded a protein stability index of 1.12 ± 0.04. In the case of SQLKKSKAQQKTAEQVA [RPL7A], the protein stability index is reported as 2.94 ± 0.052. SQLKKTKAQQKTAEQIA [RPL7B] gave a protein stability index of 2.86 ± 0.048. For SQLQEQFNKILPEPTEG [FAS1], the protein stability index was 2.71 ± 0.097. In the case of SQRPGARILARSERKRT [ITC1], the protein stability index is reported as 2.98 ± 0.2. SQSKGTVWSANFEYDLS [YOR098C/NUP1] showed a protein stability index of 3.38 ± 0.12. In the case of SQSLTSILVIVQKILPL [SWI1], the protein stability index is reported as 1.61 ± 0.033. In the case of SQSRSAKAGLTFPVGRV [HTA1], the protein stability index is reported as 3.07 ± 0.035. In the case of SQTNNSFLSGVKSLLSE [SIR4], the protein stability index is reported as 3.1 ± 0.056. For SRDKTIKVWTIKGQCLA [ASC1], the protein stability index was 1.83 ± 0.06. Sequence SRFSPEKLAVSALEQAI [YGL100W/SEH1] has a protein stability index of 2.42 ± 0.13. SRGNGGKKVLNKNQLLK [POP1] gave a protein stability index of 3.43 ± 0.11. SRKQKVIKTLTVDVSSP [RPL22B] gave a protein stability index of 2.79 ± 0.058. Sequence SRLLDILEDYCYFRDFE [ISW2] has a protein stability index of 1.21 ± 0.058. For SRPEYSCTFWSDKESNA [YJL039C/NUP192], the protein stability index was 2.57 ± 0.072. SRQKSGLFDSFTNGVLA [YML031W/NDC1] gave a protein stability index of 1.49 ± 0.06. With SRQVQKRPRSRTLTAVH [RPS7A] the protein stability index was 2.03 ± 0.032. SRRFKNGFQTGSASKAS [RPL37A] gave a protein stability index of 2.58 ± 0.055. SRRLMKSLEDLSCQYDN [RPO31] gave a protein stability index of 1.27 ± 0.085. For SRSSVCVKAIEALFQSR [YCG1], the protein stability index was 2.97 ± 0.066. For SSATIVLCLTRSSYMLE [YCG1], the protein stability index was 2.23 ± 0.032. For SSFKEDCLSFAPTLSQT [SSN2], the protein stability index was 2.91 ± 0.052. Work on SSFSLTFFPRCIIAVSC [POP1] yielded a protein stability index of 2.03 ± 0.037. SSGDFDDNNNNNNNNNN [GRR1] showed a protein stability index of 3.04 ± 0.046. With SSISWKNIAQCLSDYTK [YJL039C/NUP192] the protein stability index was 2.11 ± 0.058. For SSKKSKRLDKVGKKKGG [LRP1], the protein stability index was 1.43 ± 0.057. Sequence SSKYAYMMNSQSPRGKI [YLR018C/POM34] has a protein stability index of 2.78 ± 0.038. For SSLFNNSTNSNTTKPAF [YJL041W/NSP1], the protein stability index was 2.06 ± 0.037. For SSLHSPTSDEPVPESAG [SRB4], the protein stability index was 3 ± 0.057. SSLLYTYDENDDFFKEL [ESC2] gave a protein stability index of 2.87 ± 0.094. For SSLNGTNAKIPQFDSTQ [SSN3], the protein stability index was 2.97 ± 0.063. SSNISPEQVYSLLLTNV [ARP7] showed a protein stability index of 2.46 ± 0.033. Sequence SSNPNSSLHSPTSDEPV [SRB4] has a protein stability index of 3.15 ± 0.058. In the case of SSSSLECATCHGNLASC [RPO31], the protein stability index is reported as 2.95 ± 0.037. SSTIDAPAFHTSGKVEL [SRB8] showed a protein stability index of 2.87 ± 0.082. Sequence SSTLGIDLEDIKEELTK [PCI8] has a protein stability index of 3.02 ± 0.1. SSVIQNYDIITASSLAH [YML103C/NUP188] showed a protein stability index of 2.03 ± 0.041. SSVMSSPRVEKRSFSST [YOR098C/NUP1] showed a protein stability index of 2.54 ± 0.039. STFRLNLSVTSPYNADF [RPO21] gave a protein stability index of 2.93 ± 0.044. For STFTKHLIKCFFKITLQ [ITC1], the protein stability index was 1.6 ± 0.03. Work on STGLKSASDALKGRVVE [RPS1A] yielded a protein stability index of 3.37 ± 0.084. With STIITKAINQELEDVAV [YCS4] the protein stability index was 3.04 ± 0.061. In the case of STKKIQVATKYASLKLP [YMR129W/POM152], the protein stability index is reported as 1.92 ± 0.038. In the case of STKKKILGIHTSKMNLS [RPT2], the protein stability index is reported as 3.05 ± 0.073. With STLHMLGYTHIAINFTV [RPP1] the protein stability index was 1.55 ± 0.041. For STLKSFFTNPNKKRPSS [YOR098C/NUP1], the protein stability index was 2.91 ± 0.045. Sequence STLTTISGNPPLLYNSL [SRB5] has a protein stability index of 2.56 ± 0.036. With STLYKYLKESKRKYDEI [SWI3] the protein stability index was 2.84 ± 0.15. For STPNFGGNSNKSPPQFF [SIN4], the protein stability index was 2.9 ± 0.032. Work on STRKTPNGEGSKTWETY [RPS20] yielded a protein stability index of 3.34 ± 0.082. STSENKISEGSAKPTFS [YOR098C/NUP1] showed a protein stability index of 3.17 ± 0.097. STSKFESQYPIVTEQPS [SWP82] gave a protein stability index of 2.5 ± 0.04. With STSNALKVLSGDEGYNE [SNF12] the protein stability index was 3.5 ± 0.13. STSNTPSPPNVIITDGT [YDL088C/ASM4] gave a protein stability index of 2.956 ± 0.029. For STSSGKVSYAVKKPQKS [SNM1], the protein stability index was 3.02 ± 0.16. For STTNSDVSLLLQRDLFI [RGR1], the protein stability index was 3.02 ± 0.077. Work on STVIEEFTLFMDIAERI [YGL172W/NUP49] yielded a protein stability index of 2.75 ± 0.038. In the case of SVAKIRFPETMDETQTR [RPO21], the protein stability index is reported as 3.59 ± 0.049. With SVAVHFQYVIDESSGTS [SMC4] the protein stability index was 1.77 ± 0.055. Sequence SVERGRKRAHSLVSTQS [REC8] has a protein stability index of 3.16 ± 0.042. In the case of SVFYNIANMVLPPEKIY [SIR2], the protein stability index is reported as 1.55 ± 0.04. With SVGLPSKVASSLVIIIL [ECM29] the protein stability index was 2.21 ± 0.061. SVGNLEVVKSLYDRPLK [NAS6] showed a protein stability index of 3.34 ± 0.1. With SVNFFVSLLKKNWQNVG [RPL1A] the protein stability index was 1.46 ± 0.063. In the case of SVNPAMLPGSSNGGGKV [RPO31], the protein stability index is reported as 3.08 ± 0.06. Work on SVPTNSADAPNPNNVNV [RET1] yielded a protein stability index of 3.23 ± 0.058. Work on SVTEIPLKLSGEGPFTV [YMR129W/POM152] yielded a protein stability index of 2.81 ± 0.16. SVVRGNTFKVLSKFFFF [COB] gave a protein stability index of 1.83 ± 0.069. With SWEEGTRQSSRNFDTHE [MCD1] the protein stability index was 3.38 ± 0.15. SYEVEHVIQIPLNKPLL [TAF14] showed a protein stability index of 2.51 ± 0.055. In the case of SYFLQERYFDCCTKFFT [PCI8], the protein stability index is reported as 2.13 ± 0.044. SYHNGNLKGRPYTGWVD [FAS2] showed a protein stability index of 2.83 ± 0.094. For SYIGTIIVKDKSNDSEG [POP1], the protein stability index was 1.35 ± 0.093. SYINVTFRAVVFKPFLG [RPC25] gave a protein stability index of 1.94 ± 0.056. SYLEERERQVNEKLADL [RPC53] showed a protein stability index of 3.19 ± 0.23. In the case of SYRNGMASYMLNSFAFE [YJR042W/NUP85], the protein stability index is reported as 3.01 ± 0.084. Work on SYVAVLGMGKAVEKTLA [POP7] yielded a protein stability index of 1.61 ± 0.086. SYVETLDSMIELFKDYK [MED1] gave a protein stability index of 3.19 ± 0.054. SYYGIVCLMQISTRERD [RRP6] gave a protein stability index of 1.39 ± 0.09. Work on TAASVFKELCYENKDNL [PRE3] yielded a protein stability index of 2.17 ± 0.054. Sequence TAFKATVFFLIRVAETR [YJL039C/NUP192] has a protein stability index of 1.47 ± 0.048. With TAFKSSPFGGSSHAKGI [RPS23A] the protein stability index was 2.29 ± 0.04. TAGKTSVKSARTSTRGR [SNF2] showed a protein stability index of 3.206 ± 0.031. Work on TAGNWVASQTVKKVIEI [PRE2] yielded a protein stability index of 3.23 ± 0.081. In the case of TAIAHSIREQVHMYHKS [SNF5], the protein stability index is reported as 2.12 ± 0.044. Sequence TAIDKNGNITYSEEPRE [FAS2] has a protein stability index of 3.15 ± 0.073. TASSLAHDYNNDQDMFT [YML103C/NUP188] gave a protein stability index of 3.12 ± 0.055. Work on TAVAFWSWDIAVDNCAI [HRT1] yielded a protein stability index of 1.55 ± 0.043. TCAVGVKGKNCVVLGCE [PRE6] showed a protein stability index of 3.42 ± 0.24. Work on TCILHGPVAAQFTKVID [FAS1] yielded a protein stability index of 1.98 ± 0.047. TCVAKKGIAKEHAKWGP [RPB3] showed a protein stability index of 3.16 ± 0.047.
